The nature of the series: protein stability index of a GFP-peptide fusion (GPS, HEK-293T) (PSI 1-6); higher = more stable.
Setting [1] is: treatment: DMSO, c terminus: a fixed tail appended.
Where [2] appears, read: treatment: MLN4924 1 uM, 8 h, c terminus: a fixed tail appended.

± gives the standard deviation.

72 sequences from the supplement of paper PMC10567573 can be followed below.
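Further: 24-mer peptide tiles fused after GFP, lentivirally expressed, FACS-sorted into six equal bins by GFP/DsRed ratio, decoded by Illumina sequencing, PSI is the read-weighted mean bin number.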

As for CSYTDLLPQDEGGGGYSSVRYSDC [KCNA4], the protein stability index runs as follows: under setting [1], 2.67 ± 0.27; under setting [2], 2.68 ± 0.24.
The corresponding values for CTNSPAIVRFSGQSRGVPAVSESY [FBXO34] are 3.21 ± 0.46 and 3.14 ± 0.45.
For the sequence CVNMDRSFACQCPEGHVLRSDGKT [MATN2], the protein stability index runs as follows: under setting [1], 3.92 ± 0.21; under setting [2], 4.22 ± 0.73.
Turning to CVQCKMPVCYQCLEEGKHSSHEVK [TRIM9], the protein stability index under setting [1] amounted to 4.08 ± 0.44 and the protein stability index under setting [2] is 4.19 ± 0.45.
Turning to CWYCNRDFDDEKILIQHQKAKHFK [ZNF207], the protein stability index reads like this: under setting [1], 4.59 ± 0.39; under setting [2], 4.45 ± 0.22.
With CYDVYSPDKEEQLPFGPFNGTAWT [PKD2L1], the protein stability index by setting is: under setting [1], 2.75 ± 0.14; under setting [2], 2.59 ± 0.12.
Consider DAELATRAIPELTKLLNDEDQVVV [CTNNB1], for which the protein stability index is, setting by setting: under setting [1], 4.79 ± 0.22; under setting [2], 4.8 ± 0.11.
As for DALTKLEQGEPLWTLEDEIHSPAH [ZNF649], the protein stability index was 3.49 ± 0.35 under setting [1] and 3.65 ± 0.24 under setting [2].
For the sequence DASEAHESSSRGEAGAPGEEDIQG [CHGB], the protein stability index under setting [1] is 5.69 ± 0.3 and the protein stability index under setting [2] stood at 5.56 ± 0.28.
In the case of DASSSTSTSSSFPSSFPSSSSSSS [MAGEA10], the protein stability index is 5.07 ± 0.37 under setting [1] and 5.23 ± 0.085 under setting [2].
As to DDDDHDDHEDNDKMNDSEGMDPER [NOL4L], the protein stability index reads like this: under setting [1], 5.54 ± 0.29; under setting [2], 5.54 ± 0.23.
The corresponding values for DDEFFHFVLLCFAIGALLVCYHYY [TMEM40] are 2.27 ± 0.39 and 2.37 ± 0.88.
In the case of DDEGDSYSDNPCSCSQSHCCSRYL [SPRY1], the protein stability index runs as follows: under setting [1], 4.45 ± 0.21; under setting [2], 4.57 ± 0.23.
Take DDPSLLKEAKTKYPNYEFISDNSI [FUT8]: the protein stability index was 3.58 ± 0.36 under setting [1] and 4.04 ± 0.53 under setting [2].
In the case of DDSCLNNDIPHSIPLEQGSSCNGP [FAN1], the protein stability index under setting [1] came to 5.17 ± 0.19 and the protein stability index under setting [2] came to 5.09 ± 0.1.
The corresponding values for DEEVSSLTCDALTELLAKITNTDV [CCND2] are 4.04 ± 0.44 and 4.28 ± 0.078.
Consider DEMCANNDFVQVDPGQVGLINSNV [FAN1], for which the protein stability index by setting is: under setting [1], 4.82 ± 0.2; under setting [2], 4.78 ± 0.35.
As for DEPCAISGKWTFQRDSKRWSRLEE [DLC1], the protein stability index runs as follows: under setting [1], 3.99 ± 0.14; under setting [2], 3.91 ± 0.33.
Sequence DFGLAKEYIDPETKKHIPYREHKS [CSNK1G1] showed a protein stability index under setting [1] of 4.26 ± 0.34 and a protein stability index under setting [2] of 4.34 ± 0.086.
For DFVMSLTFPFKILGDSGLGPWQLN [P2RY14], in that order: 3 ± 0.56 and 3.08 ± 0.74.
The corresponding values for DGEGAGPGEQGGGKLVLSSLPKRL [ESRRA] are 4.94 ± 0.14 and 4.68 ± 0.15.
Consider DGIDPFPLLMNRQRVPKVLVENAK [EFHC1], for which the protein stability index was 3.77 ± 0.24 under setting [1] and 3.97 ± 0.22 under setting [2].
On to DGIPQVYYFGPCGKYNAMVLELLG [CSNK1G3], for which the protein stability index under setting [1] is 2.31 ± 0.58 and the protein stability index under setting [2] stood at 2.27 ± 0.43.
In the case of DITPLMAAANGGHVKIVKLLLAHK [ANKRD17], the protein stability index by setting is: under setting [1], 2.27 ± 0.2; under setting [2], 2.33 ± 0.41.
In turn, DIVDEDVKLMMSTLPKSLSLPTTA [MYBL2] showed a protein stability index under setting [1] of 3.9 ± 0.27 and a protein stability index under setting [2] of 3.7 ± 0.27.
Take DLERQNQEYQVLLDVRARLECEIN [KRT33B]: the protein stability index runs as follows: under setting [1], 3.39 ± 0.29; under setting [2], 3.58 ± 0.22.
For the sequence DLIESDPDAWCDLSKFDLPEEPSA [MYBL2], the protein stability index came out at 5.01 ± 0.35 under setting [1] and 5.02 ± 0.17 under setting [2].
Consider DLISKSFQGSQGRAYLFNSVVNVG [YPEL3], for which the protein stability index reads like this: under setting [1], 2.16 ± 0.22; under setting [2], 2.11 ± 0.19.
In turn, DMKSLKQVLEMKNQQIHEQEKKIL [MTUS2] yielded a protein stability index under setting [1] of 4.23 ± 0.046 and a protein stability index under setting [2] of 4.31 ± 0.33.
DMVQKSVSKTLPSTWSDPSVNISL [CLINT1] came in with a protein stability index under setting [1] of 3.04 ± 0.19 and a protein stability index under setting [2] of 3.2 ± 0.19.
In the case of DMVSNIELPTRIHEEVYFEPSSSK [MIA2], the protein stability index stood at 3.68 ± 0.2 under setting [1] and 3.88 ± 0.39 under setting [2].
As for DNAPAVLHPRPDWEHSAPQRLPRS [PCDHGC5], the protein stability index was 4.72 ± 0.17 under setting [1] and 4.81 ± 0.17 under setting [2].
In the case of DNLSDLVMVRWNKSLEWSPWNCIL [IQUB], the protein stability index reads like this: under setting [1], 2.56 ± 0.76; under setting [2], 2.39 ± 0.34.
The corresponding values for DNSLINQIENLNIQVEDIRIRAIL [LOXL2] are 2.59 ± 0.25 and 2.66 ± 0.17.
Consider DPLRSGTVLVSVTVFDANDNAPVF [PCDHGA10], for which the protein stability index is, setting by setting: under setting [1], 2.73 ± 0.42; under setting [2], 2.82 ± 0.6.
For DQTSLLVVDKETDNMYRLAHFSPF [PDZK1], the protein stability index is 2.61 ± 0.32 under setting [1] and 2.75 ± 0.26 under setting [2].
For DSDDPSVTLELSQLSMLPHLADLV [VDR], the protein stability index runs as follows: under setting [1], 3.41 ± 0.31; under setting [2], 3.62 ± 0.33.
In the case of DSDSCQKCDQPFFWNFKQMWDSKK [WDFY2], the protein stability index is, setting by setting: under setting [1], 3.64 ± 0.16; under setting [2], 3.71 ± 0.081.
As for DSRLMCSSVQKALFEEEDHVKKLQ [CCDC3], the protein stability index runs as follows: under setting [1], 4.71 ± 0.16; under setting [2], 4.74 ± 0.25.
The corresponding values for DSYIPLHEDLLTRIGEATKPDGTV [NET1] are 4.5 ± 0.43 and 4.73 ± 0.28.
Consider DTGEEEEGGDESDLSSESSIKKKF [EHMT1], for which the protein stability index is 5.46 ± 0.32 under setting [1] and 5.3 ± 0.12 under setting [2].
Consider DTGETSMLKRPVLLHLHQTAHADE [STEAP1], for which the protein stability index reads like this: under setting [1], 4.63 ± 0.078; under setting [2], 4.88 ± 0.18.
For the sequence DTPCTNRGLPLLKTDFGSCLLQPP [DLC1], the protein stability index reads like this: under setting [1], 3.41 ± 0.19; under setting [2], 3.34 ± 0.34.
For the sequence DTYIVLAWISKIKGSPDVSASSDE [SMIM2], the protein stability index reads like this: under setting [1], 2.42 ± 0.6; under setting [2], 2.41 ± 0.27.
Consider DVVALLINHGAEVTCKDKKGYTPL [ANKRD44], for which the protein stability index is 2.33 ± 0.55 under setting [1] and 2.27 ± 0.48 under setting [2].
With DYRKQLQYPNPLPVLSGAELEKAH [VPS39], the protein stability index runs as follows: under setting [1], 4.5 ± 0.15; under setting [2], 4.41 ± 0.12.
As to EADSQEQGHPQTGCECEDGPDGQE [GAGE1], the protein stability index is, setting by setting: under setting [1], 5.57 ± 0.28; under setting [2], 5.57 ± 0.15.
As for EAGAMTFHYIIEQGVCYLVLCEAA [SEC22B], the protein stability index under setting [1] was 3.08 ± 0.23 and the protein stability index under setting [2] came out at 3.01 ± 0.33.
Consider EALAKWAEGRTGFPWIDAIMTQLR [CRY1], for which the protein stability index stood at 3 ± 0.085 under setting [1] and 2.73 ± 0.21 under setting [2].
As to EALAVLEPYARLPPHKHVARPTEV [TRIB3], the protein stability index under setting [1] was 2.72 ± 0.36 and the protein stability index under setting [2] amounted to 2.77 ± 0.2.
Turning to ECRNPQELESIRQDRDALHMEGLI [FEM1B], the protein stability index runs as follows: under setting [1], 4.3 ± 0.16; under setting [2], 4.31 ± 0.17.
For the sequence EDDDCDDDDDDDAQILPSRVQGGC [DRICH1], the protein stability index under setting [1] turned out to be 5.47 ± 0.22 and the protein stability index under setting [2] came to 5.43 ± 0.11.
For EDDWPRDVSLPRGAFPPRGPRPVQ [CDK4], in that order: 4.57 ± 0.18 and 4.6 ± 0.24.
As to EDQVPALEAPEDIGSTSESKDWEE [MIA2], the protein stability index is, setting by setting: under setting [1], 5.8 ± 0.12; under setting [2], 5.71 ± 0.27.
In the case of EDQYIFIHDALLEAVTCGNTEVPA [PTPRD], the protein stability index was 3.1 ± 0.32 under setting [1] and 3.01 ± 0.31 under setting [2].
For EEEAASPEGKRVPKRLRCWEEEED [FANCE], the protein stability index under setting [1] stood at 5.4 ± 0.42 and the protein stability index under setting [2] worked out at 5.38 ± 0.21.
The corresponding values for EEFPKREDQEGSPPETSLPYKWVV [MYBL2] are 3.83 ± 0.33 and 3.99 ± 0.41.
The corresponding values for EEHSLEQVQSMVVGEVLKDIETAC [SPDEF] are 4.8 ± 0.26 and 4.85 ± 0.091.
For the sequence EEIKTWGTVFQELNKLYPTHACRE [TPH1], the protein stability index came to 2.95 ± 0.23 under setting [1] and 3.02 ± 0.28 under setting [2].
For EEKRRREEEERLRREEEERRRIEE [ACBD3], in that order: 5.53 ± 0.29 and 5.49 ± 0.28.
For EEPRPSRPRYKADVPDLQSVCSCT [KCNK9], in that order: 4.62 ± 0.13 and 4.55 ± 0.19.
For EERASLAGNRNSMVIHIPEEPRPS [KCNK9], the protein stability index worked out at 4.82 ± 0.13 under setting [1] and 4.94 ± 0.38 under setting [2].
With EESRFCDAHLVLDGEEIPVQKNIL [GAN], the protein stability index by setting is: under setting [1], 4.73 ± 0.22; under setting [2], 4.68 ± 0.073.
As to EETGSRFHNCLIQLYCEKVQGLMK [VPS39], the protein stability index was 2.48 ± 0.45 under setting [1] and 2.45 ± 0.5 under setting [2].
Take EEVKTPEEEMRSHYVAQTGILWLL [GAGE1]: the protein stability index is 2.11 ± 0.31 under setting [1] and 2.44 ± 0.49 under setting [2].
Turning to EFSVPFTEMKLRPRNFRSPAGGG [TNXB], the protein stability index came out at 3.4 ± 1.1 (treatment: DMSO, c terminus: native) and 3.09 ± 1.1 (treatment: MLN4924 1 uM, 8 h, c terminus: native).
In the case of EGVIDSSDKEIVAEAERLDVKAMG [EIF5], the protein stability index runs as follows: under setting [1], 5.34 ± 0.12; under setting [2], 5.35 ± 0.15.
The corresponding values for EIENVKKQASNLETAIADAEQRGD [KRT71] are 5.29 ± 0.49 and 5.42 ± 0.3.
For EIITQSPGRSSVASPRRLSNVSSS [MAP2], the protein stability index reads like this: under setting [1], 3.43 ± 0.18; under setting [2], 3.66 ± 0.2.
In the case of EIYKRFLTRMTRVSEFLKVAEQVG [SNAP91], the protein stability index is, setting by setting: under setting [1], 2.44 ± 0.63; under setting [2], 2.45 ± 0.24.
With EKAAALERQLKVMASDHREALLDR [LRRC45], the protein stability index was 4.41 ± 0.17 under setting [1] and 4.49 ± 0.46 under setting [2].
For EKPYGCSECGKAFPRKSELTEHQR [ZNF649], in that order: 3.95 ± 0.49 and 4.44 ± 0.52.
